Measured values published in US20240049668A1 (VILMORIN AND CIE, published 2024).
Residue numbers refer to the chain shown, from its start. In names and notes the source's numbering stands.

T1: Movement Protein of ToBRFV (Tomato Brown Rugose Fruit Virus …, UniProt A0A0S2SZW1 1-266)
T1 sequence: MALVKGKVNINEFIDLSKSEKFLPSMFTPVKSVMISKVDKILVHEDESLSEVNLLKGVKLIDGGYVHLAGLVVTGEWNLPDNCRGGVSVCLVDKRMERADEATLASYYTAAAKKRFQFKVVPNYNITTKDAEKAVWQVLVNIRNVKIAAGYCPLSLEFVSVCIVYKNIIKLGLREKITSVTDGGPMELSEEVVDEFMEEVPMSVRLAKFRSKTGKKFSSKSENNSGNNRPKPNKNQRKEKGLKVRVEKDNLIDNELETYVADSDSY

B1: TM2-14-25 encoded by Tm2-14-25 (receptor)
chain: MAEILLTSVINKSVEIAGNLLIQEGKRLYWLKEDIDWLQREMRHIRSYVDNAKAKEAGGDSRVKNLLKDIQELAGDVEDLLDDFLPKIQQSNKFNYCLKRSSFADEFAMEIEKIKRRVVDIDRIRKTYNIIDTDNNNDDCVLLDRRRLFLHADETEIIGLDDDFNMLQAKLLNQDLHYGVVSIVGMPGLGKTTLAKKLYRLIRDQFECSGLVYVSQQPRASEILLDIAKQIGLTEQKMKENLEDNLRSLLKIKRYVILLDDIWDVEIWDDLKLVLPECDSKVGSRMIITSRNSNVGRYIGGESSLHALQPLESEKSFELFTKKIFNFDDNNSWANASPDLVNIGRNIVGRCGGIPLAIVVTAGMLRARERTEHAWNRVLESMGHKVQDGCAKVLALSYNDLPIASRPCFLYFGLYPEDHEIRAFDLINMWIAEKFIVVNSGNRREAEDLAEDVLNDLVSRNLIQLAKRTYNGRISSCRIHDLLHSLCVDLAKESNFFHTAHDAFGDPGNVARLRRITFYSDNVMIEFFRSNPKLEKLRVLFCFAKDPSIFSHMAYFDFKLLHTLVVVMSQSFQAYVTIPSKFGNMTCLRYLRLEGNICGKLPNSIVKLTRLETIDIDRRSLIQPPSGVWESKHLRHLCYRDYGQACNSCFSISSLYPNIYSLHPNNLQTLMWIPDKFFEPRLLHRLINLRKLGILGVSNSTVKMLSIFSPVLKALEVLKLSFSSDPSEQIKLSSYPHIAKLHLNVNRTMALNSQSFPPNLIKLTLAYFSVDRYILAVLKTFPKLRKLKMFICKYNEEKMDLSGEANGYSFPQLEVLHIHSPNGLSEVTCTDDVSMPKLKKLLLTGFHRRISLSERLKKLSK
B2: TM-2-2 protein (product of the Tm-2-2 gene) (receptor)
chain: B1 chain with L655F, R848C
B3: TM-2-2 variant pJL 480Q (848 R, 857 Q) (receptor)
chain: B1 chain with L655F, K857Q
B4: TM-2-2 variant pJL 480E (848 R, 857 E) (receptor)
chain: B1 chain with L655F, K857E
B5: TM-2-2 variant pJL 480T (848 R, 857 T) (receptor)
chain: B1 chain with L655F, K857T
B6: TM-2-2 variant pJL 480R (848 R, 857 R) (receptor)
chain: B1 chain with L655F, K857R
B7: TM-2-2 variant pJL 480I (848 R, 857 I) (receptor)
chain: B1 chain with L655F, K857I
B8: TM-2-2 variant L11_10 (767 I) (receptor)
chain: B1 chain with L655F, Y767I, R848C
B9: TM-2-2 variant L11_11 (767 C) (receptor)
chain: B1 chain with L655F, Y767C, R848C
B10: TM-2-2 variant L11_15 (767 L) (receptor)
chain: B1 chain with L655F, Y767L, R848C
B11: TM-2-2 variant L11_16 (767 G) (receptor)
chain: B1 chain with L655F, Y767G, R848C
B12: TM-2-2 variant L11_19 (767 N) (receptor)
chain: B1 chain with L655F, Y767N, R848C
B13: TM-2-2 variant L11_20 (767 V) (receptor)
chain: B1 chain with L655F, Y767V, R848C
B14: TM-2-2 variant L11_1 (767 R) (receptor)
chain: B1 chain with L655F, Y767R, R848C
B15: TM-2-2 variant pJL 476_S (822 S, 848 R) (receptor)
chain: B1 chain with L655F, N822S
B16: TM-2-2 variant pJL 476_I (822 I, 848 R) (receptor)
chain: B1 chain with L655F, N822I
B17: TM-2-2 variant pJL 476_F (822 F, 848 R) (receptor)
chain: B1 chain with L655F, N822F
B18: TM-2-2 variant pJL 476_C (822 C, 848 R) (receptor)
chain: B1 chain with L655F, N822C
B19: TM-2-2 variant pJL 476_T (822 T, 848 R) (receptor)
chain: B1 chain with L655F, N822T
B20: TM-2-2 variant pJL 477_H (822 H, 848 R) (receptor)
chain: B1 chain with L655F, N822H
B21: TM-2-2 variant pJL 477_D (822 D, 848 R) (receptor)
chain: B1 chain with L655F, N822D
B22: TM-2-2 variant pJL 476_K (822 K, 848 R) (receptor)
chain: B1 chain with L655F, N822K
B23: TM-2-2 variant pJL 476_R (822 R, 848 R) (receptor)
chain: B1 chain with L655F, N822R
B24: TM-2-2 variant pJL 466 (F655L) (receptor)
chain: B1 chain with R848C
B25: TM2-467 encoded by Tm2-467 (receptor)
chain: B1 chain with L655F
B26: TM-2-2 variant L12_11 (769 G) (receptor)
chain: B1 chain with L655F, S769G, R848C
B27: TM-2-2 variant L12_12 (769 R) (receptor)
chain: B1 chain with L655F, S769R, R848C
B28: TM-2-2 variant L12_4 (769 F) (receptor)
chain: B1 chain with L655F, S769F, R848C
B29: TM-2-2 variant L12_16 (769 E) (receptor)
chain: B1 chain with L655F, S769E, R848C
B30: TM-2-2 variant L12_3 (769 V) (receptor)
chain: B1 chain with L655F, S769V, R848C
B31: TM-2-2 variant L12_A (769 A) (receptor)
chain: B1 chain with L655F, S769A, R848C
B32: TM-2-2 variant pJL 468_M (848 M) (receptor)
chain: B1 chain with L655F, R848M
B33: TM-2-2 variant pJL 468_N (848 N) (receptor)
chain: B1 chain with L655F, R848N
B34: TM-2-2 variant pJL 468_P (848 P) (receptor)
chain: B1 chain with L655F, R848P
B35: TM-2-2 variant pJL 468_Q (848 Q) (receptor)
chain: B1 chain with L655F, R848Q
B36: TM-2-2 variant pJL 468_R (848 R) (receptor)
chain: B1 chain with L655F
B37: TM-2-2 variant pJL 468_S (848 S) (receptor)
chain: B1 chain with L655F, R848S
B38: TM-2-2 variant pJL 468_T (848 T) (receptor)
chain: B1 chain with L655F, R848T
B39: TM-2-2 variant pJL 511_1 (767 S, 769 A, 848 R) (receptor)
chain: B1 chain with L655F, Y767S, S769A
B40: TM-2-2 variant pJL 511_2 (767 S, 848 R) (receptor)
chain: B1 chain with L655F, Y767S
B41: TM-2-2 variant pJL 511_3 (767 Y, 769 A, 848 R) (receptor)
chain: B1 chain with L655F, S769A
B42: TM-2-2 variant pJL 511_5 (767 Y wt, 769 S wt, 848 R) (receptor)
chain: B1 chain with L655F
B43: TM-2-2 variant pJL 511_8 (767 D, 769 A, 848 R) (receptor)
chain: B1 chain with L655F, Y767D, S769A
B44: TM-2-2 variant pJL 511_12 (767 D, 848 R) (receptor)
chain: B1 chain with L655F, Y767D

The binders below were run against T1, Movement Protein of ToBRFV (assay: cell-based or functional assay).

| Binder | HR to MP Rugose |
| --- | --- |
| B1 | 3 HR scale 0-4 |
| B2 | < 1 HR scale 0-4 |
| B3 | 3 HR scale 0-4 |
| B4 | < 1 HR scale 0-4 |
| B5 | < 1 HR scale 0-4 |
| B6 | < 1 HR scale 0-4 |
| B7 | < 1 HR scale 0-4 |

Biological target: T1, Movement Protein of ToBRFV
Assay: cell-based or functional assay
Remark: another data set of the same source

| Binder | HR to MP Rugose |
| --- | --- |
| B2 | < 1 HR scale 0-4 |
| B8 | 0 HR scale 0-4 |
| B9 | 0 HR scale 0-4 |
| B10 | 0 HR scale 0-4 |
| B11 | 0 HR scale 0-4 |
| B12 | 0 HR scale 0-4 |
| B13 | 0 HR scale 0-4 |
| B14 | < 1 HR scale 0-4 |

Biological target: T1, Movement Protein of ToBRFV
Assay: cell-based or functional assay
Remark: another data set of the same source

| Binder | HR to MP Rugose |
| --- | --- |
| B1 | 4 HR scale 0-4 |
| B2 | < 1 HR scale 0-4 |
| B15 | 4 HR scale 0-4 |
| B16 | 0 HR scale 0-4 |
| B17 | 2 HR scale 0-4 |
| B18 | 2 HR scale 0-4 |
| B19 | < 1 HR scale 0-4 |
| B20 | < 1 HR scale 0-4 |
| B21 | < 1 HR scale 0-4 |
| B22 | 0 HR scale 0-4 |
| B23 | 0 HR scale 0-4 |

Biological target: T1, Movement Protein of ToBRFV
Assay: cell-based or functional assay
Remark: another data set of the same source

| Binder | HR when expressed with MP Rugose |
| --- | --- |
| B1 | 4 HR scale 0-4 |
| B24 | < 1 HR scale 0-4 |
| B25 | 4 HR scale 0-4 |
| B2 | < 1 HR scale 0-4 |

Biological target: T1, Movement Protein of ToBRFV
Assay: cell-based or functional assay
Remark: another data set of the same source

| Binder | HR to MP Rugose |
| --- | --- |
| B2 | < 1 HR scale 0-4 |
| B26 | < 1 HR scale 0-4 |
| B27 | < 1 HR scale 0-4 |
| B28 | < 1 HR scale 0-4 |
| B29 | < 1 HR scale 0-4 |
| B30 | < 1 HR scale 0-4 |
| B31 | 0 HR scale 0-4 |

Biological target: T1, Movement Protein of ToBRFV
Assay: cell-based or functional assay
Remark: another data set of the same source

| Binder | HR when expressed with MP Rugose |
| --- | --- |
| B2 | < 1 HR scale 0-4 |
| B32 | < 1 HR scale 0-4 |
| B33 | < 1 HR scale 0-4 |
| B34 | < 1 HR scale 0-4 |
| B35 | < 1 HR scale 0-4 |
| B36 | 4 HR scale 0-4 |
| B37 | ~1 HR scale 0-4 |
| B38 | ~1 HR scale 0-4 |

Biological target: T1, Movement Protein of ToBRFV
Assay: cell-based or functional assay
Remark: another data set of the same source

| Binder | HR to MP Rugose |
| --- | --- |
| B39 | 0 HR scale 0-4 |
| B40 | 0 HR scale 0-4 |
| B41 | 4 HR scale 0-4 |
| B42 | 4 HR scale 0-4 |
| B43 | 0 HR scale 0-4 |
| B44 | 0 HR scale 0-4 |
